Measurements as given in patent US20250012810A1 (NORDIC BIOSCIENCE A S, published 2025).

Target: T1, elongated peptide GPPGPPGRLVD (human)
T1 construct: The range follows from the stated cleavage site V1709-D1710 and the peptide length
T1 peptide: GPPGPPGRLVD
Assay: competitive ELISA on biotin-… coated streptavidin plates
Protocol: A competitive ELISA using the monoclonal antibody raised against C7 was performed using the following procedure:
Streptavidin-coated plates were coated with 100 μL/well of 2.5 ng/mL biotin-labeled peptide (Biotin-[…], SEQ ID NO: 10) diluted in assay buffer (50 mM TBS-BTB, 2 g/L NaCl, pH 8.0) and incubated at 20° C., 300 rpm shaking for 30 minutes. Plates were washed five times in washing buffer ([…] TRIS, 50 mM NaCl, pH 7.2). Sample or standard peptide (20 μL) was added in double determinations and followed immediately by addition of 100 μL/well of 200 ng/mL HRP-labeled monoclonal antibody diluted in assay buffer and plates were incubated at 20° C., 300 rpm shaking for 3 hours. The standard peptide was a synthetic peptide ([…], SEQ ID NO: 1) with a starting concentration of 125 ng/ml and diluted 2-fold to create an 11 points calibration curve (FIG. 1). After incubation, plates were washed five times in washing buffer. A volume of 100 μL 3,3′, 5,5′-tetramethylbenzidine (TMB) was added and incubated for 15 min at 20° C. in the dark. To stop the enzyme reaction of TMB, […] 0.1% sulphuric acid was added and the absorbance was measured at 450 nm with 650 nm as the reference using an ELISA reader. A calibration curve was plotted using a 4-parametric mathematical fit model. […] All samples were measured within the range of the assay. […]

B1: monoclonal antibody raised against the C-terminal neo-epitope amino acid sequence …-COOH (C7) (antibody, mouse IgG1, kappa, V domains shown)
VH: EVQLQQSGPELVKPGASVKISCKTSGYTFIENTMNWVKQSHGKSLEWIGGINPKIGGSIYNQKFQDKATLTVDKSSSTAYMELRSLTSDDSAVYYCARGIYDEGWHFDVWGAGTTVTVSS
VL: DIVMTQAAFSNPVTLGTSASISCRSSQSLLYSNGITYLYWYLQKPGQSPQLLIYQMSNLASGVPDRFSSSGSGTDFTLRISRVEAEDVGVYYCAQNLELPWTFGGGTKLEIKR
notes: also called monoclonal antibody raised against C7; HRP-labeled monoclonal antibody
Question: Does B1 bind?
Answer: no binding
